T1: Vps15 (WD40Δ) (1 to 981) (S. cerevisiae, UniProt P22219 1-981)
T1 construct: Vps15, yeast (S. cerevisiae), residues 1 to 981, without the WD40 domain; also called Vps15Δ WD40; ScVps15 (WD40Δ)
T1 sequence (looked up): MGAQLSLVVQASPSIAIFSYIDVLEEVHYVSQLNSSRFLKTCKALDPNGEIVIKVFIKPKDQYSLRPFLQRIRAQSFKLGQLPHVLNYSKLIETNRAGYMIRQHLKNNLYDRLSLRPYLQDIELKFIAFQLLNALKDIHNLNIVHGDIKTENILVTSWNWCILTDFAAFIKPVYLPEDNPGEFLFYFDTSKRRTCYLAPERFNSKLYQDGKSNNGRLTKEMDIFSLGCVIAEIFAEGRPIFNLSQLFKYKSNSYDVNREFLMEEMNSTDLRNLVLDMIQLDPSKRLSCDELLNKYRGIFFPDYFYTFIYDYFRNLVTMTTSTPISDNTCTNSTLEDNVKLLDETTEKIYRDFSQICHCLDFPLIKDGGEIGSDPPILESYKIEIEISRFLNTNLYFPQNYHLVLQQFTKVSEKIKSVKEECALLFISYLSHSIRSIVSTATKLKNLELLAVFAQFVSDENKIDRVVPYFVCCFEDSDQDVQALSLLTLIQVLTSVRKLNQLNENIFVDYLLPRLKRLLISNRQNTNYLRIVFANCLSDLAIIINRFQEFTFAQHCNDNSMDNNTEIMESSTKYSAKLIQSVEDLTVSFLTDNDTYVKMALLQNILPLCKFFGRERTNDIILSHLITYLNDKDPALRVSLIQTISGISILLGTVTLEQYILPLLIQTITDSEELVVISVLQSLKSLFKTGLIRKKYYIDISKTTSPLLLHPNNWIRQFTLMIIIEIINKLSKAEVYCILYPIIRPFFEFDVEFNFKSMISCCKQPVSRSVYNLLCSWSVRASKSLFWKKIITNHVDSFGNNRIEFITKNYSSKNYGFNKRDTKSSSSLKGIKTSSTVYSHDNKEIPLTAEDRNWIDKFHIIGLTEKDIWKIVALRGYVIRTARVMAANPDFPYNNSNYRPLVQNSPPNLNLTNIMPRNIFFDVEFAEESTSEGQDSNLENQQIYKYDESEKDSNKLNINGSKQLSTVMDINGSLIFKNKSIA

T2: Vps15, full-length (of the Vps15-Vps34 D731N dimer) (S. cerevisiae, UniProt P22219 1-1454)
T2 construct: Vps15, yeast (S. cerevisiae), full-length; also called ScVps15
T2 sequence (looked up): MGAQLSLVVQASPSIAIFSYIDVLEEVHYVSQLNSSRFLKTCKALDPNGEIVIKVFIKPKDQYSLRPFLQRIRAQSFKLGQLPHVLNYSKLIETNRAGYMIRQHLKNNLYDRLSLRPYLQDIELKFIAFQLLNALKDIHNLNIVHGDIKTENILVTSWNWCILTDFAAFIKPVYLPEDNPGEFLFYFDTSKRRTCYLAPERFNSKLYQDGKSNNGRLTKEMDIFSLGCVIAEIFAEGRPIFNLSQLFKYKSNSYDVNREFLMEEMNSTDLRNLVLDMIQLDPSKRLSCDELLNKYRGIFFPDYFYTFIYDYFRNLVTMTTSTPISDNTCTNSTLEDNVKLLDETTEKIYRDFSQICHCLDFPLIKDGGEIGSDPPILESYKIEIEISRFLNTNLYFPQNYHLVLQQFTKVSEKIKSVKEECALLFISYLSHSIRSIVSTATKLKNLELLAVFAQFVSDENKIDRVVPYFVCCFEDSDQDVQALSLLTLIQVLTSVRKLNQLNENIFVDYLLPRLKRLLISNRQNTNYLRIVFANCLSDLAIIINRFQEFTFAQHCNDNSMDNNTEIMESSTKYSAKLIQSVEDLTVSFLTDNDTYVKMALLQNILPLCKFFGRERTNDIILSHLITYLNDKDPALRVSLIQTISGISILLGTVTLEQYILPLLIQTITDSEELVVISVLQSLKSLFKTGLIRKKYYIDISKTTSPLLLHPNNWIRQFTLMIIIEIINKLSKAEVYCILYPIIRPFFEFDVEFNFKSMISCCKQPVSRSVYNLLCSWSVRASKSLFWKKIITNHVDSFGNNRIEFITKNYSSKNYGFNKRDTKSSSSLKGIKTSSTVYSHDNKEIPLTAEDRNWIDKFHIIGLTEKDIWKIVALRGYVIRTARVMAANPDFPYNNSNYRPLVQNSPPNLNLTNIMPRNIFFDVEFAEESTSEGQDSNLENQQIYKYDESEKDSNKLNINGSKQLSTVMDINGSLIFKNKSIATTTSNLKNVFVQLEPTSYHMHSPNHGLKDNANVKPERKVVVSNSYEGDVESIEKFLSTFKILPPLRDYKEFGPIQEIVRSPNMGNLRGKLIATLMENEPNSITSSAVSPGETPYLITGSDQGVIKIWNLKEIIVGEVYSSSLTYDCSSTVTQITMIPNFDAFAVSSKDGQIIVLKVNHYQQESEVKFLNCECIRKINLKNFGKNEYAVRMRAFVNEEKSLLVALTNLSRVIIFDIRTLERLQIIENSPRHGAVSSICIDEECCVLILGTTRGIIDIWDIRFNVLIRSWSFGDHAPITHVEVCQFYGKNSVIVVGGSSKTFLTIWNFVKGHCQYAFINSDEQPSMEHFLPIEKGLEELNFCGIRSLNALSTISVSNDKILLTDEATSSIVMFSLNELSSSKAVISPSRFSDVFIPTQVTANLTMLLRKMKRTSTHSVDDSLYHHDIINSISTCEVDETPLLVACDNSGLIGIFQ

T3: Atg14 (subunit of the purified yeast complex I) (S. cerevisiae, UniProt P38270 1-344)
T3 construct: Atg14, S. cerevisiae
T3 sequence (looked up): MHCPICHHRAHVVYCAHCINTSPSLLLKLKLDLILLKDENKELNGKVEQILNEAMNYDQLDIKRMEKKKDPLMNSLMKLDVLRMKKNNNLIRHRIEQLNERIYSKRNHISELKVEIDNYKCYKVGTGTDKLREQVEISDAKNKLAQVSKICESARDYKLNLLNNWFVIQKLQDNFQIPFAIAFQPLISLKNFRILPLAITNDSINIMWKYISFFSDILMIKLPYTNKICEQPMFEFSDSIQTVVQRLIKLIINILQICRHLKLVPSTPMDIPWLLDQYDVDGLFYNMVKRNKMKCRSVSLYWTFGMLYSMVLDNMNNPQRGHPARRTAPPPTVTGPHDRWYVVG


Legend:
Vps15 (WD40Δ) (1 to 981) = molecular target: T1, Vps15 (WD40Δ) (1 to 981); assay: negative-stain EM reconstruction; co-purified yeast Vps15-Vps34 D731N and Vps15 (WD40Δ)-Vps34 D731N dimers, 2% uranyl acetate; 28 Å; details: both partners purified
[1] = molecular target: T2, Vps15, full-length (of the Vps15-Vps34 …); assay: as above; details: both partners purified
[2] = molecular target: T4, yeast complex I (Vps15-Vps34-Vps30-Atg14 heterotetramer) (S. cerevisiae, UniProt P22219 1-1454; P22543 1-875; Q02948 1-557; P38270 1-344); assay: SEC; purified yeast complex I mixed with purified Atg38 at 6:1 or 1:6 molar ratio (8.6 µM complex I with 1.4 or 51.7 µM Atg38), on ice 30 min, S200 10/30; 20 mM Tris pH 8.8, 150 mM NaCl, 0.5 mM TCEP; fractions on SDS-PAGE; details: both partners purified
T4 construct: Vps15, S. cerevisiae, subunit of complex I; Vps34, S. cerevisiae, subunit of complex I; Vps30/Atg6, S. cerevisiae, subunit of complex I; Atg14, S. cerevisiae, subunit of complex I; expected mass 379 kDa; also called CI; heterotetrameric S. cerevisiae complex I; copies: 1 + 1 + 1 + 1

[3] = molecular target: T4, yeast complex I …; assay: SEC-MALS; purified yeast complex I (co-expressed, co-purified) and gel-filtration purified complex I + Atg38 on S200 10/30; 20 mM Tris pH 8.8, 150 mM NaCl, 1 mM TCEP; details: both partners purified
[4] = molecular target: T3, Atg14 (subunit of the purified yeast …); assay: HDX-MS; complex I, free Atg38 and gel-filtered complex I + Atg38; 2.5 µM protein, 20 mM Tris pH 8.0, 50 mM NaCl, 2 mM TCEP, 75% D2O, 3 to 3000 sec at 23°C; details: both partners purified
[5] = molecular target: the molecule itself; assay: SEC-MALS; Atg38 full-length, MIT domain and deletion variants alone on S75 10/30; 20 mM Tris pH 7.9, 300 mM NaCl, 1 mM TCEP

T4 sequence (Q02948 whole entry, one chain of several): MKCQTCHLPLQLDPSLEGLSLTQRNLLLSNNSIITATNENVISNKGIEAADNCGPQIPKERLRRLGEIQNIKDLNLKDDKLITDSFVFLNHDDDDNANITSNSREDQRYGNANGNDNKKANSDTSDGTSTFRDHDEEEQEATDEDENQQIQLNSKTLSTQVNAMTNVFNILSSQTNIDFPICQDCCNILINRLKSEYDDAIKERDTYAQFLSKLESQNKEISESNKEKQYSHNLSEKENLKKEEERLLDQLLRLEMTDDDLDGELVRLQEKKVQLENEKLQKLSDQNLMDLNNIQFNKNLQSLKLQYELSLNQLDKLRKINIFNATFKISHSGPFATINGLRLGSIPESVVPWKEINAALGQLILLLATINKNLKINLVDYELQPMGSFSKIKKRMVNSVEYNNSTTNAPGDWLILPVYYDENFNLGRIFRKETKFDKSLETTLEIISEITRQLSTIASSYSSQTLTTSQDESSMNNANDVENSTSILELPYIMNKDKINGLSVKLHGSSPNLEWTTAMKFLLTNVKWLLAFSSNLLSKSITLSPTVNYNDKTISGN

binding result (Vps15 (WD40Δ) (1 to 981)) | binding result [1] | Binder | stoichiometry N [2] | stoichiometry N [3] | binding result [4] | stoichiometry N [5]
binds | binds | Vps34 D731N (KI) (enzyme, S. cerevisiae, UniProt P22543 1-875, looked up) MSLNNITFCVSQDLDVPLKVKIKSLEGHKPLLKPSQKILNPELMLIGSNVFPSSDLIVSLQVFDKERNRNLTLPIYTPYIPFRNSRTWDYWLTLPIRIKQLTFSSHLRIILWEYNGSKQIPFFNLETSIFNLKDCTLKRGFESLKFRYDVIDHCEVVTDNKDQENLNKYFQGEFTRLPWLDEITISKLRKQRENRTWPQGTFVLNLEFPMLELPVVFIEREIMNTQMNIPTLKNNPGLSTDLREPNRNDPQIKISLGDKYHSTLKFYDPDQPNNDPIEEKYRRLERASKNANLDKQVKPDIKKRDYLNKIINYPPGTKLTAHEKGSIWKYRYYLMNNKKALTKLLQSTNLREESERVEVLELMDSWAEIDIDDALELLGSTFKNLSVRSYAVNRLKKASDKELELYLLQLVEAVCFENLSTFSDKSNSEFTIVDAVSSQKLSGDSMLLSTSHANQKLLKSISSESETSGTESLPIVISPLAEFLIRRALVNPRLGSFFYWYLKSESEDKPYLDQILSSFWSRLDKKSRNILNDQVRLINVLRECCETIKRLKDTTAKKMELLVHLLETKVRPLVKVRPIALPLDPDVLICDVCPETSKVFKSSLSPLKITFKTTLNQPYHLMFKVGDDLRQDQLVVQIISLMNELLKNENVDLKLTPYKILATGPQEGAIEFIPNDTLASILSKYHGILGYLKLHYPDENATLGVQGWVLDNFVKSCAGYCVITYILGVGNRHLDNLLVTPDGHFFHADFGYILGQDPKPFPPLMKLPPQIIEAFGGAESSNYDKFRSYCFVAYSILRRNAGLILNLFELMKTSNIPDIRIDPNGAILRVRERFNLNMSEEDATVHFQNLINDSVNALLPIVIDHLHNLAQYWRT |  |  |  | 
 |  | Atg38, full-length (natural protein, S. cerevisiae, UniProt Q05789 1-226, looked up, also called purified Atg38; free Atg38; source: E. coli, purified (Glutathione Sepharose, TEV, HiTrap Q, S75); not shown: GST, N-terminal, cleaved) MSTLAEVYTIIEDAEQECRKGDFTNAKAKYQEAIEVLGPQNENLSQNKLSSDVTQAIDLLKQDITAKIQELELLIEKQSSEENNIGMVNNNMLIGSVILNNKSPINGISNARNWDNPAYQDTLSPINDPLLMSILNRLQFNLNNDIQLKTEGGKNSKNSEMKINLRLEQFKKELVLYEQKKFKEYGMKIDEITKENKKLANEIGRLRERWDSLVESAKQRRDKQKN | 2 Atg38 chains per complex I | 1 Atg38 homodimer per complex I | binds | 2

— article PMC5103362 (Autophagy, 2016)
